Source: patent US20090099029A1, “Methods and substrates for conducting assays” (Invitrogen Corporation, priority 2005, published 2009)

B1: CSF1R (protein)
chain: YKYKQKPKYQVRWKIIESYEGNSYTFIDPTQLPYNEKWEFPRNNLQFGKTLGAGAFGKVVEATAFGLGKEDAVLKVAVKMLKSTAHADEKEALMSELKIMSHLGQHENIVNLLGACTHGGPVLVITEYCCYGDLLNFLRRKAEAMLGPSLSPGQDPEGGVDYKNIHLEKKYVRRDSGFSSQGVDTYVEMRPVSTSSNDSFSEQDLDKEDGRPLELRDLLHFSSQVAQGMAFLASKNCIHRDVAARNVLLTNGHVAKIGDFGLARDIMNDSNYIVKGNARLPVKWMAPESIFDCVYTVQSDVWSYGILLWEIFSLGLNPYPGILVNSKFYKLVKDGYQMAQPAFAPKNIYSIMQACWALEPTHRPTFQQICSFLQEQAQEDRRERDYTNLPSSSRSGGSGSSSSELEEESSSEHLTCCEQGDIAQPLLQPNNYQFC
modifications: left off: small tags and cut ends
B2: ADRBK2(GRK3) (protein, UniProt P35626 1-688, looked up)
G protein-coupled receptor …: MADLEAVLADVSYLMAMEKSKATPAARASKRIVLPEPSIRSVMQKYLAERNEITFDKIFNQKIGFLLFKDFCLNEINEAVPQVKFYEEIKEYEKLDNEEDRLCRSRQIYDAYIMKELLSCSHPFSKQAVEHVQSHLSKKQVTSTLFQPYIEEICESLRGDIFQKFMESDKFTRFCQWKNVELNIHLTMNEFSVHRIIGRGGFGEVYGCRKADTGKMYAMKCLDKKRIKMKQGETLALNERIMLSLVSTGDCPFIVCMTYAFHTPDKLCFILDLMNGGDLHYHLSQHGVFSEKEMRFYATEIILGLEHMHNRFVVYRDLKPANILLDEHGHARISDLGLACDFSKKKPHASVGTHGYMAPEVLQKGTAYDSSADWFSLGCMLFKLLRGHSPFRQHKTKDKHEIDRMTLTVNVELPDTFSPELKSLLEGLLQRDVSKRLGCHGGGSQEVKEHSFFKGVDWQHVYLQKYPPPLIPPRGEVNAADAFDIGSFDEEDTKGIKLLDCDQELYKNFPLVISERWQQEVTETVYEAVNADTDKIEARKRAKNKQLGHEEDYALGKDCIMHGYMLKLGNPFLTQWQRRYFYLFPNRLEWRGEGESRQNLLTMEQILSVEETQIKDKKCILFRIKGGKQFVLQCESDPEFVQWKKELNETFKEAQRLLRRAPKFLNKPRSGTVELPKPSLCHRNSNGL
B3: AKT2 (protein)
chain: MNEVSVIKEGWLHKRGEYIKTWRPRYFLLKSDGSFIGYKERPEAPDQTLPPLNNFSVAECQLMKTERPRPNTFVIRCLQWTTVIERTFHVDSPDEREEWMRAIQMVANSLKQRAPGEDPMDYKCGSPSDSSTTEEMEVAVSKARAKVTMNDFDYLKLLGKGTFGKVILVREKATGRYYAMKILRKEVIIAKDEVAHTVTESRVLQNTRHPFLTALKYAFQTHDRLCFVMEYANGGELFFHLSRERVFTEERARFYGAEIVSALEYLHSRDVVYRDIKLENLMLDKDGHIKITDFGLCKEGISDGATMKTFCGTPEYLAPEVLEDNDYGRAVDWWGLGVVMYEMMCGRLPFYNQDHERLFELILMEEIRFPRTLSPEAKSLLAGLLKKDPKQRLGGGPSDAKEVMEHRFFLSINWQDVVQKKLLPPFKPQVTSEVDTRYFDDEFTAQSITITPPDRYDSLGLLELDQRTHFPQFSYSASIRE
modifications: left off: small tags and cut ends
B4: AKT3 (protein)
chain: MSDVTIVKEGWVQKRGEYIKNWRPRYFLLKTDGSFIGYKEKPQDVDLPYPLNNFSVAKCQLMKTERPKPNTFIIRCLQWTTVIERTFHVDTPEEREEWTEAIQAVADRLQRQEEERMNCSPTSQIDNIGEEEMDASTTHHKRKTMNDFDYLKLLGKGTFGKVILVREKASGKYYAMKILKKEVIIAKDEVAHTLTESRVLKNTRHPFLTSLKYSFQTKDRLCFVMEYVNGGELFFHLSRERVFSEDRTRFYGAEIVSALDYLHSGKIVYRDLKLENLMLDKDGHIKITDFGLCKEGITDAATMKTFCGTPEYLAPEVLEDNDYGRAVDWWGLGVVMYEMMCGRLPFYNQDHEKLFELILMEDIKFPRTLSSDAKSLLSGLLIKDPNKRLGGGPDDAKEIMRHSFFSGVNWQDVYDKKLVPPFKPQVTSETDTRYFDEEFTAQTITITPPEKYDEDGMDCMDNERRPHFPQFSYSASGRE
modifications: left off: small tags and cut ends

Tested on: kinases of Table 6 on Myelin Basic Protein (MBP)
Test: Kinase assay using MBP substrate, ProQ Diamond stain (Table 6)
Assay type: biochemical
Conditions: kinase printed on MBP-coated slide; 20 uM ATP, 30° C.; ProQ Diamond Microarray Stain; graded Strong/Weak/Negative
In short: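 Reactions ran at 30° C. with 20 uM ATP, 4 mM MgCl2 and 5% DMSO in HEPES pH 7.5, inhibitor added or omitted. Kinases had been arrayed onto slide-bound dephosphorylated bovine MBP; phospho-signal read after ProQ Diamond staining.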

Molecule	MBP Kinase Activity
B1	Strong
B2	Negative
B3	Strong
B4	Strong
